Measurements taken from the supplement of paper PMC9170038.

Tested on: MS2 coat protein
Test: apparent KD of MS2 coat protein; designed switch direction (-1 OFF switch, 1 ON switch): 1; higher = weaker reporter binding
How it was run: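 RNA switches sharing common flanks were transcribed by stalled E. coli RNA polymerase on Illumina chips. A doubling series of SNAP-549-labelled MS2 coat protein, from 0.7 or 1.5 nM to 3 µM, was applied in Tris-HCl pH 7.5 buffer with KCl, MgCl2, BSA, DTT, tRNA and Tween-20. Each step lasted 0.8–1.5 h at the bottom of the series and 10–20 min at the top. Normalised cluster fluorescence was curve-fitted, giving apparent KD as the per-design median over clusters.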

[1] = Eterna round: R95, input ligand: FMN 200 uM
[2] = Eterna round: R95, input ligand: microRNA oligo, concentration not stated
[3] = Eterna round: R95, input ligand: none
[4] = input ligand: microRNA oligo, concentration not stated

“GUCCAACAUGAGGAUCACCCAUGUCGGGCGUGCACAGGAUAUCGCGCCGGGAAAGCCCAGCGAGAAGGGUGAUCGA [Atveinla] (puzzle: Same State 1)” was tested, and the “apparent KD of MS2 coat protein” value [1] was 197 nM, the “apparent KD of MS2 coat protein” value [2] was 57.8 nM and the “apparent KD of MS2 coat protein” value [3] was 50.9 nM.

With “GUCGGACCGGAAGGAUAUAACGACUGGUGUUUUCACAUGAGGAUCACCCAUGUAUCUCUACCGUGUUAGAAGGUUCGGAGGAAU [Eternabot solution 49] (Eterna round: R96, puzzle: Same State NG 2)” the “apparent KD of MS2 coat protein” value (input ligand: FMN 200 uM) was 14.8 nM, the “apparent KD of MS2 coat protein” value [4] was 15.2 nM and the “apparent KD of MS2 coat protein” value (input ligand: none) was 20.4 nM.

“GUGCUCGUGUGAGGAUAUGCUUCCGGGUCGGCUGCAGAAGGUACUAUUAUACAUGAGGAUCACCCAUGUCGCUUUUCUCCGGUG [salish99_SSNG1_r04_917] (Eterna round: R96, puzzle: Same State NG 1)” was tested, and the “apparent KD of MS2 coat protein” value (input ligand: FMN 200 uM) was 48.2 nM, the “apparent KD of MS2 coat protein” value [4] was 29.2 nM and the “apparent KD of MS2 coat protein” value (input ligand: none) was 38.4 nM.

“GUGGAGGAUUAAGGAUAUUGAAUACAUAUGUUUAACAUGAGGAUCACCCAUGUGGGUUGCGGUAUCGAGAAGGUAAAUUACUGG [salish99_SSNG2_r04_034] (Eterna round: R96, puzzle: Same State NG 2)” was tested, and the “apparent KD of MS2 coat protein” value (input ligand: FMN 200 uM) was 146 nM, the “apparent KD of MS2 coat protein” value [4] was 63.2 nM and the “apparent KD of MS2 coat protein” value (input ligand: none) was 117 nM.

In the case of “GUGGCACAUGAGGAUCACCCAUGUGGGUAGAACAUAGGAUAUCACCAACAAAAUACCCGGUGAGAAGGAUGAUGCC [Esanesdi] (puzzle: Same State 1)”, the “apparent KD of MS2 coat protein” value [1] is reported as 118 nM, the “apparent KD of MS2 coat protein” value [2] is reported as 121 nM and the “apparent KD of MS2 coat protein” value [3] is reported as 161 nM.

“GUGGUCAGACAUGAGGAUCACCCAUGUGGAAUAAAUAACACACAGGAUAUCGAAUAUAAAAUAUACGAGAAGGGUGGAUUGGUG (Eterna round: R96, puzzle: Same State NG 3)” was tested, and the “apparent KD of MS2 coat protein” value [4] was 334 nM.

In the case of “GUGGUCAGACAUGAGGAUCACCCAUGUGGAAUAAAUAACACACAGGAUAUGUAAUAUAAAAUAUAACAGAAGGGUGGAUUGGUG (Eterna round: R96, puzzle: Same State NG 3)”, the “apparent KD of MS2 coat protein” value [4] is reported as 213 nM.

With “GUGGUCAGACAUGAGGAUCACCCAUGUGGAAUAAAUAACAGACAGGAUAUUUAAUAUAGGAUAUAAAAGAAGGGUCGAUUGGUG (Eterna round: R96, puzzle: Same State NG 3)” the “apparent KD of MS2 coat protein” value (input ligand: FMN 200 uM) was 110 nM, the “apparent KD of MS2 coat protein” value [4] was 98.9 nM and the “apparent KD of MS2 coat protein” value (input ligand: none) was 116 nM.

For “GUGGUCAGACAUGAGGAUCACCCAUGUGGAAUAAAUAACGUACAGGAUAUUGAAUAUAGGAUAUACAAGAAGGGUAGAUUGGUG (Eterna round: R96, puzzle: Same State NG 3)”, the “apparent KD of MS2 coat protein” value (input ligand: FMN 200 uM) was 167 nM, the “apparent KD of MS2 coat protein” value [4] was 115 nM and the “apparent KD of MS2 coat protein” value (input ligand: none) was 127 nM.

“GUGGUCAGACAUGAGGAUCACCCAUGUGGAAUAAAUAAGGACUAGGAUAUGUAAUAUAGGAUAUAACAGAAGGAGUGGUUGGUG (Eterna round: R96, puzzle: Same State NG 3)” was tested, and the “apparent KD of MS2 coat protein” value (input ligand: FMN 200 uM) was 66.8 nM, the “apparent KD of MS2 coat protein” value [4] was 42.1 nM and the “apparent KD of MS2 coat protein” value (input ligand: none) was 60.2 nM.

“GUGGUCAGACAUGAGGAUCACCCAUGUGGAAUAAAUAAGGAGAAGGAUAUGCAAUAUAGGAUAUAGCAGAAGGUUUGGUUGGUG (Eterna round: R96, puzzle: Same State NG 3)” was tested, and the “apparent KD of MS2 coat protein” value [4] was 69.6 nM.

“GUGGUGGGUUGAGGAUAUUGGUUGCAUAUGUUUAACAUGAGGAUCACCCAUGUGGGUUGCGGUUUCGAGAAGGUAGGUUGCUGG [salish99_SSNG2_r04_045bad] (Eterna round: R96, puzzle: Same State NG 2)” was tested, and the “apparent KD of MS2 coat protein” value (input ligand: FMN 200 uM) was 112 nM, the “apparent KD of MS2 coat protein” value [4] was 106 nM and the “apparent KD of MS2 coat protein” value (input ligand: none) was 112 nM.

“GUUAAGAACUAAGGAUAUUGAAUACAUAUGUUUAACAUGAGGAUCACCCAUGUGGGUUGCGGUAUCGAGAAGGUAGAAUAAUAG [Mat - same State NG 2 - JL mod - D93] (Eterna round: R96, puzzle: Same State NG 2)” was tested, and the “apparent KD of MS2 coat protein” value [4] was 89.8 nM.

With “GUUACAUGAGGAUCACCCAUGUAUGUGUGGGAGUAAGUGUCUUAGGAUAUCUAUCAUUUAAUGUAAGAGAAGGAAGAUUGUUGU [JMF's solution 97] (Eterna round: R96, puzzle: Same State NG 3)” the “apparent KD of MS2 coat protein” value (input ligand: FMN 200 uM) was 122 nM, the “apparent KD of MS2 coat protein” value [4] was 106 nM and the “apparent KD of MS2 coat protein” value (input ligand: none) was 118 nM.

With “GUUACAUGAGGAUCACCCAUGUAUGUGUGGGAGUAAGUGUCUUAGGAUAUCUAUCAUUUAAUUAAAGAGAAGGAAGAUUGUUGU [JMF's solution 98] (Eterna round: R96, puzzle: Same State NG 3)” the “apparent KD of MS2 coat protein” value (input ligand: FMN 200 uM) was 86.9 nM, the “apparent KD of MS2 coat protein” value [4] was 87.3 nM and the “apparent KD of MS2 coat protein” value (input ligand: none) was 113 nM.

For “GUUACAUGAGGAUCACCCAUGUAUGUGUGGGAGUAAGUGUCUUAGGAUAUCUAUUAUAUAAAUUAAGAGAAGGAAGAUUGUUGU [JMF's solution 16] (Eterna round: R96, puzzle: Same State NG 3)”, the “apparent KD of MS2 coat protein” value (input ligand: FMN 200 uM) was 126 nM, the “apparent KD of MS2 coat protein” value [4] was 87.9 nM and the “apparent KD of MS2 coat protein” value (input ligand: none) was 124 nM.

“GUUACAUGAGGAUCACCCAUGUAUGUGUGGGAGUAAGUGUCUUAGGAUAUCUAUUAUGUAAAUUAAGAGAAGGAAGAUUGUUGU [JMF's solution 17] (Eterna round: R96, puzzle: Same State NG 3)” was tested, and the “apparent KD of MS2 coat protein” value (input ligand: FMN 200 uM) was 160 nM, the “apparent KD of MS2 coat protein” value [4] was 222 nM and the “apparent KD of MS2 coat protein” value (input ligand: none) was 262 nM.
